Changes are numbered by the printed parent chain. Where two headings read alike, the source gives them in different places.

Assay [1] concerns the target T1, Human_OSMR (human, UniProt Q99650 28-739).
T1 construct: Bought protein; also called hOSMR
T1 sequence: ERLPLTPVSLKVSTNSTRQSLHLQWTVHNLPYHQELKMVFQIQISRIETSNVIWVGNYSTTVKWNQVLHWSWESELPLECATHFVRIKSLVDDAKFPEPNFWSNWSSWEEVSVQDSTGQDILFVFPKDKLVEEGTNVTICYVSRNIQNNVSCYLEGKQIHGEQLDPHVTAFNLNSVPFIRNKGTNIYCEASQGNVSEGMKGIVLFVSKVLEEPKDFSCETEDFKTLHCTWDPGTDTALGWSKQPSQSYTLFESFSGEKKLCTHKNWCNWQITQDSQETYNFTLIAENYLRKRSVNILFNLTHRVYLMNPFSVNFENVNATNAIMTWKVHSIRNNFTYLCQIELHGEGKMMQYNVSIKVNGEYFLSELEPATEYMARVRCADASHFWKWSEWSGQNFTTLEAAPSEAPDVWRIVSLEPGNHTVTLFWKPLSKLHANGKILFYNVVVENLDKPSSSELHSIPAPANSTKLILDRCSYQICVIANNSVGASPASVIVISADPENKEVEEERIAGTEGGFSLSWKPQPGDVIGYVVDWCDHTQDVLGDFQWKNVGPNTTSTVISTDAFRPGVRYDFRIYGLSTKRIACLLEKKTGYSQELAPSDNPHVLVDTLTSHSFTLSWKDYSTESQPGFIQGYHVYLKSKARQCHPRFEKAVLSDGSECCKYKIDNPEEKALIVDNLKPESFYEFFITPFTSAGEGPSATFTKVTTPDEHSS
The assay can be described thus: SPR Biacore. As for the experimental part: (§1) The affinity with which candidate mAbs bind canine, feline, and human (SEQ ID NO: 122; Human_OSMR) (R&D Systems, Minneapolis, Minn.) OSMR was determined using surface plasmon resonance (SPR) on a Biacore system (Biacore Life Sciences (GE Healthcare), Uppsala, Sweden). To avoid affinity differences associated with differential surface preparation that can occur when immobilizing antibodies to surfaces; OSMR from each species was directly conjugated to individual surfaces. Immobilization was obtained by amine coupling 5 μg/mL OSMR using N-hydroxysuccinimide (NHS)/1-Ethyl-3-(3-dimethylaminopropyl) carbodiimide (EDC) chemistry. Chips were quenched with ethanolamine and the affinity with which all candidate mAbs bound to the immobilized OSMR was evaluated. All curves were fit to a 1:1 model. […] Results for affinity measurements are described herein.
Caninized (canine) and felinized (feline) anti-OSMR antibodies were cloned, expressed, and purified. The sequence of each speciated antibody in Table 6 is described in Example 8. Affinity of these speciated antibodies to canine and feline OSMR was measured using Biacore. Table 5 describes results of these Biacore experiments for speciated antibodies that expressed and bound canine and/or feline OSMR. As indicated in the table, this first round of speciation produced antibodies from the 19F07, 09E09, and 10F07 lineage that expressed and bound to their protein target. For comparison to the mouse and mouse:canine chimeras having the same CDRs as these speciated versions, see Tables 1 and 3 respectively. […] Detailed here are the binding kinetics for antibodies that exemplify this goal.
A general note: Surface plasmon resonance follows binding to a sensor surface in real time, without labels.

In assay [2] the target is T2, canine OSMR on canine cells (canine, UniProt A0A8I3MI11 28-967).
T2 sequence: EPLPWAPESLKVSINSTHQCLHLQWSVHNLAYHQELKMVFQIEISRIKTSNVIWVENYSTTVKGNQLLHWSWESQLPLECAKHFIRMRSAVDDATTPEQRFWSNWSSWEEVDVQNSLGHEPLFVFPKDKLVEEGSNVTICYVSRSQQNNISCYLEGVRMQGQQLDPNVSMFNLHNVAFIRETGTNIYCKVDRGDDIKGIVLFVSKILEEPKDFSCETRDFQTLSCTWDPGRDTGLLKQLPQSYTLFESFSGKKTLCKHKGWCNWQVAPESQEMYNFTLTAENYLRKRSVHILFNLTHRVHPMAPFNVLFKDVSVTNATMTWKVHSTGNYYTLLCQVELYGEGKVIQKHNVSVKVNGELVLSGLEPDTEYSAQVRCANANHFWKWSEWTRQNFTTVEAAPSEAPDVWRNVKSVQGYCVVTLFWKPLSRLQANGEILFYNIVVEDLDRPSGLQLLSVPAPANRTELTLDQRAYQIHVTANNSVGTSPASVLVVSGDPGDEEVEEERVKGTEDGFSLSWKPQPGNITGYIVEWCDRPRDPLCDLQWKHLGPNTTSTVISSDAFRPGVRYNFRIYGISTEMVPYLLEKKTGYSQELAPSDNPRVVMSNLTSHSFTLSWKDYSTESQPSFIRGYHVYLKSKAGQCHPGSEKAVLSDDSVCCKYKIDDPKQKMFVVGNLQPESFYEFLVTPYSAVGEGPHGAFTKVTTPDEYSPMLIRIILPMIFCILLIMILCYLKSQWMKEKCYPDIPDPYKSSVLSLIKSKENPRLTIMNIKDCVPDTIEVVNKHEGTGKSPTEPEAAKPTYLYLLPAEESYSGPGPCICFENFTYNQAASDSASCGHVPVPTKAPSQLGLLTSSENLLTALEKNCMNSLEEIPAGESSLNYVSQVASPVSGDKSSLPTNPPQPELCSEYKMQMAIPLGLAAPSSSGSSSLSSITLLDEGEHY
The assay can be described thus: cell-based or functional assay.

Assay [3] deals with T2, canine OSMR on canine cells. Description: cell-based or functional assay. This is another data set of the same source.
Assay [4] has as its target T1, Human_OSMR. The assay can be described thus: SPR Biacore, OSMR on chip. As for the experimental part: as §1
Assay [5] deals with T3, ANTIBODY EXPRESSION CONTROL.
T3 construct: also called mouse anti-canine antibody (capture reagent of the expression control ELISA)
Description: SPR Biacore, expression control. In short, it runs like this:
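Surface plasmon resonance with OSMR amine-coupled at 5 μg/mL via NHS/EDC, ethanolamine-quenched, and candidate mAbs flowed over as analyte. ka, kd and KD derived from 1:1 model fits.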

The target in assay [6] is T4, feline OSMR on feline Fcwf-4 cells (feline, UniProt A0ABI8A843 28-960).
T4 sequence: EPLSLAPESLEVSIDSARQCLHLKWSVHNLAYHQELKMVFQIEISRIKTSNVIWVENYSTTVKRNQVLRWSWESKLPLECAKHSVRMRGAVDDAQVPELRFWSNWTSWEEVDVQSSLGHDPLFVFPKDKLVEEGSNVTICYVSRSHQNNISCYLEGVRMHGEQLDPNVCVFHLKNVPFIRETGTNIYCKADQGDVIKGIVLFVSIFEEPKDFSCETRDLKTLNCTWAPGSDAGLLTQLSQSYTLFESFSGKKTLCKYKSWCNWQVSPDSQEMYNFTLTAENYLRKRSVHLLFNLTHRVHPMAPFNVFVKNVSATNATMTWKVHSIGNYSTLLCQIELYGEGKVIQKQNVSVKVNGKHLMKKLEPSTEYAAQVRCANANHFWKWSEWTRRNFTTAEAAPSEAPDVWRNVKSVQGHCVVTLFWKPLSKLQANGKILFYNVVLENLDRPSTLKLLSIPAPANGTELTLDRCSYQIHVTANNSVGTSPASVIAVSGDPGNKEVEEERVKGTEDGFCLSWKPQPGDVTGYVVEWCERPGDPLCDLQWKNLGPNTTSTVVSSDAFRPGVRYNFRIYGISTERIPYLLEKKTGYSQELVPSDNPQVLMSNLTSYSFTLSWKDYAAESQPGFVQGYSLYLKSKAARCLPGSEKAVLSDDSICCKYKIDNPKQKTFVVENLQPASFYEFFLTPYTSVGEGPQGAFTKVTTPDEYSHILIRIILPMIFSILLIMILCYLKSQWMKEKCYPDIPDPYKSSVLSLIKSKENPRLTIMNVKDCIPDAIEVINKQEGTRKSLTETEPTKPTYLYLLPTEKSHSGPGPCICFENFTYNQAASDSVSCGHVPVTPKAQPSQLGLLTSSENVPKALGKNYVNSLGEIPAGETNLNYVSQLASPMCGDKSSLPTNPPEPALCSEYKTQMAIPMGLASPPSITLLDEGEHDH
Description: cell-based or functional assay.

Assay [7] has as its target T4, feline OSMR on feline Fcwf-4 cells. Description: cell-based or functional assay. The source holds these as a separate data set.

B1: Canine_OSM (ligand)
chain: SCSDKYPELLGQLQKQADFMQHTNTLLDLYIRSQGLDKNGLKEHCRERPGAFPSKDALQRLSRRVFLRTLDTTLGQVLLRLAALEQDIPKAQDLEMLSGVKLNIRGFKNNIHCMAQLLPGSSETTEPTPTSPGASPSPTPTLDTFQRRLEGCRFLHGYHRFMRSVGQVFREWGKSLSRSRR
notes: also called cOSM
On to B1, for which, in assay [1], binding was put at a Kd of 38.1 nM; the koff – broadly, the rate constant with which the complex falls apart – was 0.0039 s⁻¹; the on-rate constant (kon) – broadly, a measure of how fast the partners come together – is 102000 M⁻¹ s⁻¹.

B2: mouse: canine 02D09 chimera (antibody, V domains shown)
VH: EVQLVESGGGLVKPGGSLTLSCAASGFTFSDYGMHWLRQAPEKGLEWVAYISSGSRAVFFADTVKGRFTISRDNAKNTLFLQMTSLRSDDTAMYYCARDRYDGRGFAYWGQGTLVTVSA
VL: DIVLTQSPATLSVTPGDSVSLSCRASQSISNNLHWYQQTSHESPRLLITYASQSISGIPSRFSGSGSGTDFTLSINSVETEDFGMYFCQQSNSWPLTFGAGTKLELKR
notes: Mouse variable domains on canine IgG constant regions; also called 02D09 (Mouse:Canine); chimeric 02D09
As for B2, the “IC50, inhibition of canine IL-31 pSTAT3 signaling, canine DH82 cells” value in assay [2] is 97.7 µg/ml. For the same molecule, the “IC50, inhibition of canine IL-31 pSTAT3 signaling, canine DH82 cells” value in assay [3] is 97.7 µg/ml. Also, the binding result in assay [4] is reported as “no binding”. Further, in assay [5], the Kd (commonly the concentration at which binding is half-saturated) stood at 0.6 nM, the off-rate constant (koff) amounted to 9.15e-05 s⁻¹ and the on-rate constant (kon) turned out to be 153000 M⁻¹ s⁻¹.

B3: mouse: canine 09E09 chimera (antibody, V domains shown)
VH: DVKLVESGEGLVKPGGSLKLSCAASGFTFSSYAMSWVRQTPEKRLEWVAYISSGGDYIYYADTVKGRFTISRDNARNTLYLQMSSLKSEDTAMYYCTRDPITGTFAYWGQGTLVTVSA
VL: DLQMTQTTSSLSASLGDRVTISCRASQDINNYLNWYQQKPDGTVKLLIYYTSTLHSGVPSRFSGSGSGTDYSLTISNLEQEDIATYFCQQGNTLPWTFGGGTKLEIKR
notes: Mouse variable domains on canine IgG constant regions; also called 09E09 (Mouse:Canine); mouse:dog chimera 09E09
With B3, the “IC50, inhibition of canine IL-31 pSTAT3 signaling, canine DH82 cells” value in assay [2] is 47.5 µg/ml. In addition, in assay [3], the “IC50, inhibition of canine IL-31 pSTAT3 signaling, canine DH82 cells” value is 31.3 µg/ml. The binding result in assay [4] is “no binding”. For the same molecule, in assay [5], the Kd was determined as 0.0023 nM, the dissociation rate constant (koff) was 8.68e-07 s⁻¹ and the on-rate (kon) stood at 374000 M⁻¹ s⁻¹.

B4: mouse: canine 10F07 chimera (antibody, V domains shown)
VH: B3 VH with A49T, I58F
VL: B3 VL with L2I, N30T, Y71F, N92H, T93M
notes: Mouse variable domains on canine IgG constant regions; also called 10F07 (Mouse:Canine); mouse:dog chimera 10F07
As for B4, in assay [2], the “IC50, inhibition of canine IL-31 pSTAT3 signaling, canine DH82 cells” value turned out to be 0.03 µg/ml and the “IC50, inhibition of canine OSM pSTAT3 signaling, canine DH82 cells” value turned out to be 0.2 µg/ml. For the same molecule, in assay [6], the “IC50, inhibition of canine OSM pSTAT3 signaling, feline Fcwf-4 cells” value is 0.28 µg/ml and the “IC50, inhibition of feline IL-31 pSTAT3 signaling, feline Fcwf-4 cells” value worked out at 0.05 µg/ml. In assay [3], the “IC50, inhibition of canine IL-31 pSTAT3 signaling, canine DH82 cells” value worked out at 0.05 µg/ml and the “IC50, inhibition of canine OSM pSTAT3 signaling, canine DH82 cells” value is 0.16 µg/ml. The “IC50, inhibition of feline IL-31 pSTAT3 signaling, feline Fcwf-4 cells” value in assay [7] turned out to be 0.32 µg/ml. For the same molecule, in assay [4], the binding result is “no binding”. Moreover, in assay [5], the Kd is 0.617 nM, the off-rate (koff) worked out at 8.27e-05 s⁻¹ and the association rate constant (kon) was 134000 M⁻¹ s⁻¹.

These data come from US20220177594A1 (ZOETIS SERVICES, published 2022).
